Assay results from patent publication US20230136228A1.

Columns and labels:
[1] = target: human CEACAM5 (carcinoembryonic antigen, CEA), cell surface (human) (UniProt P06731); test: flow cytometry, transfected PEAK cells, equimolar to 10 mcg/ml full-size antibody
human CEACAM4 (human) [2] = target: human CEACAM4 (human) (UniProt O75871); test: as above
human CEACAM3 (human) [3] = target: human CEACAM3 (human) (UniProt P40198); test: as above
human CEACAM8 (human) [4] = target: human CEACAM8 (human) (UniProt P31997); test: as above
human CEACAM1 (human) [5] = target: human CEACAM1 (human) (UniProt P13688); test: as above
human CEACAM6 (human) [6] = target: human CEACAM6 (human) (UniProt P40199); test: as above
[7] = target: human CEACAM5 (carcinoembryonic antigen, CEA), cell surface (human) (UniProt P06731); test: flow cytometry, MFI on transfected PEAK cells divided by MFI on WT PEAK cells
human CEACAM4 (human) [8] = target: human CEACAM4 (human) (UniProt O75871); test: as above
human CEACAM3 (human) [9] = target: human CEACAM3 (human) (UniProt P40198); test: as above
human CEACAM8 (human) [10] = target: human CEACAM8 (human) (UniProt P31997); test: as above
human CEACAM1 (human) [11] = target: human CEACAM1 (human) (UniProt P13688); test: as above
human CEACAM6 (human) [12] = target: human CEACAM6 (human) (UniProt P40199); test: as above

human CEACAM8 (human), sequence (P31997 35-320): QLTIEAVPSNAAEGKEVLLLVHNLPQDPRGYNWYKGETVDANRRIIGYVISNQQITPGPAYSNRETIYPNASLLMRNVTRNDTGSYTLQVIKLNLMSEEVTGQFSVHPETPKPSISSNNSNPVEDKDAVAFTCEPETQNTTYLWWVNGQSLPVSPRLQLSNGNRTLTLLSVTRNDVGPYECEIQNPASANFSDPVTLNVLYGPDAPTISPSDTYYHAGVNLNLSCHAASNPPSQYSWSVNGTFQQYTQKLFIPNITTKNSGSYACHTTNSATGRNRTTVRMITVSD
human CEACAM6 (human), sequence (P40199 35-320): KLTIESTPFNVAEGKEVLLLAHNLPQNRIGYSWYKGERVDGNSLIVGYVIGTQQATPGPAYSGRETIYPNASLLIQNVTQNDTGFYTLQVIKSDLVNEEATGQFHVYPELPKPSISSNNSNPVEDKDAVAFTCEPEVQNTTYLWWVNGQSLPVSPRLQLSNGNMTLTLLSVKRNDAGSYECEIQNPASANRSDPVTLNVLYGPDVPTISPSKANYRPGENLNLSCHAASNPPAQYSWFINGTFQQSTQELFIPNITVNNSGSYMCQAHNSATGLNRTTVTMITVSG
human CEACAM5 (carcinoembryonic antigen, CEA), cell surface (human), sequence (P06731 35-685 limits assumed): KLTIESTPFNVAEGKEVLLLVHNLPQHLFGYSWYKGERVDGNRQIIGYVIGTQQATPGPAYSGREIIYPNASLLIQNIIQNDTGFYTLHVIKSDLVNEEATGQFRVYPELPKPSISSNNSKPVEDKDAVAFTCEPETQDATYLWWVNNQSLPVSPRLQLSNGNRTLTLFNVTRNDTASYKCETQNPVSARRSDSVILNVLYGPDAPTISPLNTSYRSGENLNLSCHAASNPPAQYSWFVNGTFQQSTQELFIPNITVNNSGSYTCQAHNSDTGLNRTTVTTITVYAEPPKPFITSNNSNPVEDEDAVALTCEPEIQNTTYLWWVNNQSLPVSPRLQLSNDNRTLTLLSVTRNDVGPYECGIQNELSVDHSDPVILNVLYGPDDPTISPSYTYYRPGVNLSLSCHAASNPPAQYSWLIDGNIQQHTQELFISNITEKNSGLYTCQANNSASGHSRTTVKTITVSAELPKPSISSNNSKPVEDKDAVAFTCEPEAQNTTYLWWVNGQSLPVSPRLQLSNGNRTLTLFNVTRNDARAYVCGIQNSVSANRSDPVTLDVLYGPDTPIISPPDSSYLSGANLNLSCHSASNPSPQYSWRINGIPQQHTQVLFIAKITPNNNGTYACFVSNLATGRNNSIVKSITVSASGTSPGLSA
human CEACAM1 (human), sequence (P13688 35-526): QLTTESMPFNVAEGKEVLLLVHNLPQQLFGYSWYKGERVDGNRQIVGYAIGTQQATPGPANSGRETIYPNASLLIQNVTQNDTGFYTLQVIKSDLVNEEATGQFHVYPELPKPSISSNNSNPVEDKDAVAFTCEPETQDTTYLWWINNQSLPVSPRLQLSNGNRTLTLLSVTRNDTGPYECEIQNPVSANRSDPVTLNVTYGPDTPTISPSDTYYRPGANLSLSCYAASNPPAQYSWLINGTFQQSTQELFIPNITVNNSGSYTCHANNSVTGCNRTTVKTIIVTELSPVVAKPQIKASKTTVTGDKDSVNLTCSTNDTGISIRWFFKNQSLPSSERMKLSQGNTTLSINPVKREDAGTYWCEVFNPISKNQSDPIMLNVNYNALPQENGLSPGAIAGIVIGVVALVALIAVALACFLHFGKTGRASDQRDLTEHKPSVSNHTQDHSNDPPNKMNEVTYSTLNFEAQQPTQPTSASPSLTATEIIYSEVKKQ
human CEACAM3 (human), sequence (P40198 35-252): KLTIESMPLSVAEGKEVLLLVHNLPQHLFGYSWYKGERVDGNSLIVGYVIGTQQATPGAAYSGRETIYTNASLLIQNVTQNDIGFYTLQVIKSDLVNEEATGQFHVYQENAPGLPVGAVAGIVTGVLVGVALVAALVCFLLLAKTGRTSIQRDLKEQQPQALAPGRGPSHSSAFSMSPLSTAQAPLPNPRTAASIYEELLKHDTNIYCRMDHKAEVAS
human CEACAM4 (human), sequence (O75871 36-244): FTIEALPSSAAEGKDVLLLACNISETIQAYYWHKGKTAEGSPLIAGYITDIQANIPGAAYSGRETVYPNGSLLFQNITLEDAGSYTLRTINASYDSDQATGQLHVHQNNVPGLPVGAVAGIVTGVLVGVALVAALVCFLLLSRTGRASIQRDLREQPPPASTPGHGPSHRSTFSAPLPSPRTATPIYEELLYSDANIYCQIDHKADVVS

MFI [1]: 18400 MFI
MFI (human CEACAM4 (human) [2]): 1340 MFI
MFI (human CEACAM3 (human) [3]): 943 MFI
MFI (human CEACAM8 (human) [4]): 24000 MFI
MFI (human CEACAM1 (human) [5]): 1470 MFI
MFI (human CEACAM6 (human) [6]): 1830 MFI
Factor to PEAK WT [7]: 15.7 fold
Factor to PEAK WT (human CEACAM4 (human) [8]): 1.1 fold
Factor to PEAK WT (human CEACAM3 (human) [9]): 0.8 fold
Factor to PEAK WT (human CEACAM8 (human) [10]): 20.4 fold
Factor to PEAK WT (human CEACAM1 (human) [11]): 1.2 fold
Factor to PEAK WT (human CEACAM6 (human) [12]): 1.6 fold
Substance: MEDI-565 BiTE (bispecific antibody)
